Assay results taken from US20220195015A1 (published 2022).
Where a chain is given by its changes, count along the chain named.

B1: C046 (antibody, V domains shown)
VH: EVQLVESGGGLAQPGRSLRLSCAASGFTFDDYAMHWVRQAPGKGLEWVSGINWNSGSLGYADSVKGRFTISRGIAKNSLYLQMNSLRPEDTAFYYCAKAGVRGIAAAGPDLNFDYWGQGTLVTVSS
VL: EIVLTQSPATLSLSPGERATLSCRASQSVSSYLAWYQQKPGQAPRLLIYDASNRATGIPARFIGSGSGTDFTLTISSLEPEDFAVYYCQQRITFGQGTRLEIK
B2: C048 (antibody, V domains shown)
VH: VQLQESGPGLVKPSETLSLTCAVSGGSVSSGNYYWNWIRQPPGKGLEWIGYIYYSGSTNYNPSLKSRVTISVDTSKNQFSLKLNSVTAADTAVYHCARETYYYDSSGYYISDAFDIWGQGTMVTVSS
VL: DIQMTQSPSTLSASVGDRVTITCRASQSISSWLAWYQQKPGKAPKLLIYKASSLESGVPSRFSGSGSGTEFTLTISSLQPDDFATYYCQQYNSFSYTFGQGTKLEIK
B3: C047 (antibody, V domains shown)
VH: QVQLQESGPGLVKPSETLSLTCTVSGGSISSTTYYWDWIRQSPGKGLEWIGSIFYTGITYYSPSLKSRVTISVDTSKNQFSLRLNSMTAADTAVYYCARRLRQLWFGPWFDPWGQGTLVTVSS
VL: QSALTQPPSASGSPGQSVTISCTGTRSDVGDYNYVSWYQQHPDKAPKLIIYEVTKRPSGVPDRFSGSKSGNTASLTVSGLQAEDEADYYCSSYAGSNNVMFGGGTKLTVL
B4: C710 (antibody, V domains shown)
VH: B3 VH with T23I, S30N, S67T
VL: B3 VL with Y51F, N97S
B5: C512 (antibody, V domains shown)
VH: QVQLQESGPGLVKPSGTLSLTCAVSAGSISSNNWWSWVRQPPGKGLEWIGEVYHNGNINYNPSLKSRVTLSVDKSKNQFSLKLSSVTAADTAVYYCAKGGDRAMGPEYFDSWGQGTLVTVSS
VL: QSALTQPASVSGSPGQSITISCTGTSSDVGANNYVSWYQQHPGKAPKLMIYDVNERPSGVSNRFSGSKSGNTASLTISGLQTEDEADYYCSSFASSSTLLFGGGTKLTVL
B6: C516 (antibody, V domains shown)
VH: QVQLVQSGAEVKKPGSSVKVSCKASGGTFSSYAISWVRQAPGQGLEWMGRIIPMLVIATYARKFQGRVTITADKSTSTAYMELSSLRSEDTAVYYCARGVVAATPGNFDIWGQGTMVTVSS
VL: EIVMTQSPATLSVSPGERATLSCRASQSVSSNLAWYQQKPGQAPRLLIYGASTRATGIPARFSGSGSGTEFTLTISSLQSEDFAVYYCQQYNNGLTFGGGTKVEIK
B7: C526 (antibody, V domains shown)
VH: QVQLVQSGAEVKKPGASVKVSCKASGHTFTTYYLHWVRQAPGQGLEWMGRIDPSGGSTTYAQKFQGRVTMTRDTSTSTVYMELSSLRSEDTALYYCARGGYCGSTSCSPDDYFDYWGQGTLVTVSS
VL: SYELTQPPSVSVAPGKTARITCGGNNIGSKSVHWYQQKPGQAPVLVIYYDSDRPSGIPERFSGSNSGNTATLTISRVEAGDEADYYCQVWDSSSDHYYVFGTGTKVTVL
B8: C528 (antibody, V domains shown)
VH: EVQLVESGGGLVQPGGSLRLSCAASGFTFRNYDMHWVRQVAGKGLEWVSAIGTSGDTYYPDSVKGRFTISRENAKNSVYLQMNNLRAGDTAVYFCVRDREISGWTGWYFDLWGRGTLVTVSS
VL: DIQMTQSPSSLSASVGDRVTITCRASQTIHNYLNWYQQIPGKAPRLLIYATNTLQSGVPSRFSGSGSGTDFTLTITGLQPEDFATYYCQQSYSTPPITFGQGTRLEIK
B9: C529 (antibody, V domains shown)
VH: EVQLLESGGGLVQPGGSLRLSCAASGFTFNNYAMNWVRQAPGRGLEWVSGISGSGANTYYADSVKGRFTISRDNPKNTLSLQMNSLRAEDTALYYCAKVLSPTYYDSWSGPDAFDFWGQGTMVTVSS
VL: DIQMTQSPSTLSASVGDRVTITCRASQTISPWLAWYQQKPGKAPNLLIYKASSLESGVPSRFSGSGSGTEFTLTISSLQPDDFATYYCQQYNSYSSWTFGQGTKVEIK
B10: C511 (antibody, V domains shown)
VH: EVQLVESGGGLVQPGGSLRLSCAATEITVSSNYMTWVRQAPGKGLEWVSVIYPGGSTFYADSVKGRFSISRDNSKNTLYLQMNSLRAEDTAVYYCARDLVVYGLDCWGQGTLVTVSS
VL: DIQLTQSPSFLSASVGDRVTITCRASQGISSYLAWYQQKPGKAPKLLIYAASTLQSGVPSRFSGSGSGTEFTLTISSLQPEDFATYYCQQLNTYPPPFGGGTKVEIK
B11: C515 (antibody, V domains shown)
VH: EVQLVESGGGLVQPGGSLRLSCAASGFIVSSNYMSWVRQAPGKGLEWVSILYSGGSTYYADSVKGRFTISRDNSKNTLYLQMNSLRAEDTAVYYCARDLVVYGADYWGQGTLVTVSS
VL: B10 VL with T93S
B12: C531 (antibody, V domains shown)
VH: EVQLVESGGGLVQPGRSLRLSCVATGFTFDDFAMHWVRQAPGKGLEWVSGISWNGGIIGYVDSVKGRFTISRDNAKNSLYLQMNSLRPEDTALYYCVKGYRYYYDILTGYYNDAGAFDYWGQGTLVTVSS
VL: B10 VL with L4S, T20A, A50P, R61G, T93D, P96F, P97T, G100P, E105D
B13: C597 (antibody, V domains shown)
VH: QVQLVQSGPEVKKPGTSVKVSCKASGFTFTNSAVQWVRQSRRQRLEWIGWIVVGSGNTNYAQKFQERVTITRDMSTSTAYMELSSLRSEDTAVYYCAAVDCNSTSCYDAFDIWGQGTMVTVSS
VL: EIVLTQSPGTLSLSPGERATLSCRASQSFRSSYLAWYQQKPGQAPRLLIYGASSRATGIPDRFSGSGSGSDFTLTISRLEPEDFAVYYCQQYDISPWTFGQGTKVEIK
B14: C598 (antibody, V domains shown)
VH: QVQLVQSGPEVKKPGTSVKVSCKASGFTFSSSAVQWVRQARGQRLEWIGWIVVGSGNTNYAQKFQERVTITRDMSTSTAYMELSSLRSEDTAVFYCAAPYCNVTTCFDGFNIWGRGTMVTVSS
VL: B13 VL with F29V, L34F, G51A, S70T, V86L, D93G, I94S
B15: C525 (antibody, V domains shown)
VH: EVQLVESGGRLVQPGRSLRLSCAASGFTFDDYAIHWVRQAPGKGLEWVSGISWNSGSIGYADSVRGRFTISRDNAKNSLYLQMNSLRAEDTALYYCAKGLDSSSSASPDYWGQGTLVTVSS
VL: DIQMTQSPSSVSASVGDRVTITCRASQDISSWLAWYQQKPGKAPKLLIYLASSLQSGVPSRFSGSGSGTDFILTISSLQPEDFGTYYCQQGNSFPLTFGGGTKVEIK
B16: C523 (antibody, V domains shown)
VH: QVQLQESGPGLVKPSETLSLTCTVSGASISSHYWSWIRQPPGKGLEWIGYIHYIGSTNYNPSLKSRVTILLDTSKNQFSLRLRSVTAADTAVYYCARGWPYCGVDCYSGFDYWGQGTLVTVSS
VL: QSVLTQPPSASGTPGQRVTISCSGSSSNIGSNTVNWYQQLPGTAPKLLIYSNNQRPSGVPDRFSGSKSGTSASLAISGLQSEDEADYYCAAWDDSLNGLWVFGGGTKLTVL
B17: C513 (antibody, V domains shown)
VH: EVQLLESGGGLVQPGGSLRLSCVASGFSFSTYAMSWVRQAPGQGLEWVSTITGTSIGTYYADSVKGRFTISRDNSKNTVFLQMKSLRAEDAAVYYCANHPLASGDEYYYYYMDVWGKGTTVTVSS
VL: EIVLTQSPDTLSLSPGERATLSCRASQSVHSKQLAWYQQKPGQAPRLLIYGASSRATGIPDRFSGSGSGTDFTLTISRLEPEDFAVYYCQQYGSIRALTFGGGTKVEIK
B18: C514 (antibody, V domains shown)
VH: EVQLVESGGGLVQPGGSLRLSCAASEFIVTRNYMSWVRQAPGKGLEWVSLIYPGGSTFYADSVKGRFTISRDNSKNTLFLHMNSLRAEDTAVYYCARDLAGRLDYWGQGTLVTVSS
VL: DIQMTQSPSSLSASVGDRVTITCQASQDINNFLNWYQQKPGKAPKLLIYDASNLETGVPSRFSGSGSGTDFTFTISSLQPEDIAIYYCQQYDSLSRLTFGGGTKVEIK
B19: C517 (antibody, V domains shown)
VH: B18 VH with T30S, P53S, F58Y, F79Y, H81Q, V92M, L99I
VL: B18 VL with N30S, N31K, F32Y, I83F, I85T, Q90H
B20: C524 (antibody, V domains shown)
VH: EVQLVESGGDLIQPGGSLRLSCAASGFSVSNSYMSWVRQAPGKGLEWVSIIYSGGSTYYADSVKGRFTISRDNSKNTLYLQMNSLRAEDTAVYFCAKTPRGDYDSSGTSAYWGQGTLVTVSS
VL: QLVLTQSPSASASLGASVNLTCTLSSGHSSYAIAWHQQQPEKGPRFLMKLSSDGSHNKGDGIPDRFSGSSSGAERFLTISSLQSEDEADYYCQTWGIGSDWVFGGGTKLTVL
B21: C532 (antibody, V domains shown)
VH: EVQLVQSGAEVKKPGESLKISCKGSGYRFTNYWIGWVRQMPGKGLEWIGNIFPGDSDSRYSPSFQGQVTISVDMSITTAYLHWSSLKASDTAIYYCARLSERWYSPFDSWGQGTLVTVSS
VL: EIVMTQSPATLSVSPGERATLSCRASQSVSSNLAWYQQKPGQAPRLLIYGASTRATGFPARFSGSGSGTEFTLTISSLQSEDFAVYFCQQYNNWPPGGFTFGPGTKVDIK
B22: C530 (antibody, V domains shown)
VH: QVQLVESGGGVAQPGRSLRLSCAASGFTFSRYGMHWVRQAPGKGLEWVAVIWHDGSDKYCADFVKGRFTISRDNSKNTLYMQMDSLRAEDTAVYYCARGGRPDHETGIAVLGEYYFDSWGQGTLVTVSS
VL: SYELTQPPSVSVSPGQTARITCSGDAFPLQYGYWYQQKPGQAPVLVIYKDKERPSGISERFSGSSSGTTVTLTISGVQAEDEADYYCQSADTNGVVFGGGTSLTVL
B23: C527 (antibody, V domains shown)
VH: QVQLVESGGGVVQPGRSLRLSCAASGFTFSSYGMHWVRQAPGKGLEWVALIGYDGTDKYYAENVKGRFTISRDNSKNTLFLQMNSLRGGDTAVYLCARDGIPFRYGMDVWGQGTTVTVSS
VL: DIQMTQSPSTLSASVGDRVTITCRASQSIDIWLAWYQQKPGKAPKFLIHKASTLESGVPSRFSGSGSGTEFTLTISSLQPDDFATYYCQHYHSYSGTFGQGTKVEIK

molecular target: SARS-CoV-2 spike protein receptor binding domain (RBD) (SARS-CoV-2, UniProt P0DTC2 319-539); assay: ELISA on plate-coated RBD

Point of comparison: B3, EC50 11.1 ng/mL. Against it:
- B1 — 2.8-fold lower, 4.02 ng/mL
- B2 — 2.3-fold lower, 4.8 ng/mL
- B4 — 1.6-fold higher, 17.8 ng/mL

molecular target: SARS-CoV-2 spike protein receptor binding domain (RBD), wild type (SARS-CoV-2, UniProt P0DTC2 319-539); assay: ELISA, RBD protein coated on plate, antibody titrated

Point of comparison: B15, EC50 10.6 ng/mL. Against it:
- B5 — 6.3-fold lower, 1.68 ng/mL
- B6 — 1.9-fold lower, 5.72 ng/mL
- B7 — 1.7-fold higher, 18.2 ng/mL
- B8 — 1.9-fold lower, 5.66 ng/mL
- B9 — within 1.5-fold, 8 ng/mL
- B10 — 8-fold lower, 1.33 ng/mL
- B11 — 6.1-fold lower, 1.73 ng/mL
- B12 — 1.5-fold lower, 6.84 ng/mL
- B13 — 2.8-fold lower, 3.77 ng/mL
- B14 — 2.8-fold lower, 3.78 ng/mL
- B16 — within 1.5-fold, 9.08 ng/mL
- B17 — 8.1-fold lower, 1.31 ng/mL
- B18 — 13-fold lower, 0.82 ng/mL
- B19 — 12-fold lower, 0.87 ng/mL
- B20 — 2.1-fold lower, 5 ng/mL
- B21 — 11-fold lower, 1 ng/mL
- B22 — within 1.5-fold, 10.5 ng/mL
- B23 — within 1.5-fold, 13.4 ng/mL
